“Also recorded” adds a separate entry of the source.
Experiments:
[1] = test system: norepinephrine and dopamine in the hippocampus; test: Hippocampal catecholamine measurements (HPLC-ECD); format: in vivo, mice; conditions: 1 mg/kg leptin daily
Description: Control mice received food ad-libitum. Diet-restricted mice received a diet of 57 kCal/week/mouse (2.16 g/day/mouse) as 60% of the requirement, or 38 kCal/week/mouse (1.44 g/day/mouse) for 40%/DR. DR was carried out for 10 days. Behavioral test was performed using the eight-arm spatial maze during the second week of experiment. During the behavioral tests, half of the animals in each group were injected intraperitoneally (i.p) with AICAR (1-2 mM equal to 258-516 mg/kg) or leptin (1 mg/kg) and the other half with saline. Mice were sacrificed by decapitation after the behavioral tests and the hippocampi were frozen at -70° C. Catecholamines were measured as described previously ([…] et al (1996), Brain Res. 732, 133-144. The assays for dopamine and NE were performed by HPLC separation and detection using HPLC-ECD. Values are presented as a concentration (ng/mg tissue).

mice [2] = test: Eight-arm maze in LPS administered mice; format: in vivo; conditions: 1 mg/kg leptin daily
Description: The animals were placed in an eight-arm maze, which is a scaled-down version of that developed for rats (Randt et al, (1971) Science 172, 489-499; Ziv et al (1994) Neuroscience Lett, 170, 136-140). We used water deprivation achieved by limiting water consumption overnight and a reward of 50 μl of water presented at the end of each arm. The mice were tested until they made entries into all eight arms or until they completed 24 entries, whichever came first. […] Maze performance was calculated each day for five consecutive days. Results were presented as area under the curve (AUC) utilizing the formula: (day 2+day 3+day 4+day 5)−4*(day 1).
LPS administered mice were daily treated with 1 mg/kg leptin and then subjected to the eight arm maze.

AMPK = test: Hippocampal AMPK phosphorylation by immunoblotting; format: in vivo; conditions: 40% diet restricted mice, 1 mg/kg leptin for 72 h
Description: Total hippocampal Protein was extracted using TriFast reagent. Aliquots of the clarified lysates containing […] were denatured in Laemmli sample buffer (6% SDS 30%, glycerol, 0.02% bromophenol blue, 200 mM Tris-HCl (pH 6.8), and 250 mM-mercaptoethanol, at 95° C. for 5 min. The samples were resolved by SDS-PAGE (10% acrylamide), and blotted onto nitrocellulose membrane. Non-specific binding in a Western blot analysis was prevented by immersing the membranes in blocking buffer (5% nonfat dry milk in Tris-buffer saline-Tween 20 (TBS-T)), for 2 h at room temperature. The membranes were then exposed to the indicated antibodies diluted 1:1000 for 1 h at room temperature. AMPK, phospho-AMPK and PARP were obtained from Cell Signaling. Bax, bcl-2 and actin were from Santa Cruz Biotechnology Inc. (Santa Cruz, Calif.). The blots were rinsed in TBS-T and then incubated with horseradish peroxidase-conjugated goat anti-mouse antibodies 1:10,000 for 1 h at room temperature. Antibody-antigen complexes were visualized by detecting enhanced chemiluminescence with X-ray film.
Leptin is a key hormone in the regulation of energy balance and is known to modulate AMPK activity in other systems^15,16. The manner by which leptin may interact with AMPK in modulating brain function was further investigated. Leptin was analyzed functionality under different degrees of diet restriction. […]

mice [3] = test: Activity index in TAA model of hepatic encephalopathy; format: in vivo; conditions: TAA treated mice, 1 mg/kg Leptin daily for 5 days
Description: FIG. 10. […] Mice were treated with TAA, then 1 mg/kg Leptin was administrated daily for 5 days and activity index was evaluated.
Mice were treated with TAA to cause an experimental hepatic encephalopathy-brain damaged caused by liver dysfunction and common in people whose liver function deteriorates. The activity index of the animals was assessed. […] FIG. 11.

activated caspase-3 = test: Activated caspase-3 immunohistochemistry in hippocampal sections; format: in vivo, mice; conditions: 40% DR, leptin 1 mg/kg
Description: Mice were perfused intracardially with 4% paraformaldehyde in PBS. Their brains were removed, fixed further in the same solution. […] sections, cut on the same day, were de-waxed and hydrated through graded ethanols, cooked in 25 mM citrate buffer pH 6.0 in a pressure cooker at […] for 3 min (decloaking chamber, Biocare Medical), transferred into boiling deinoized water and left to cool down for 20 min. After 5 min treatment in 3% H2O2, slides were incubated with rabbit polyclonal activated caspase-3 antibody diluted 1:100 in CAS-Block (Zymed) for 3 h at room temperature, washed three times with Optimax (Biogenex), incubated for 30 min with anti rabbit Envision_(DAKO) and developed with DAB for 15 min.
The effects of leptin administration (restoration) on neural function in diet-restricted mice was investigated. Mice were assigned at random to 4 groups. The groups were kept under ad libitum or DR to 40% for 10 days and injected daily with either 1 mg/kg leptin or saline for 5 days during the second week. […] Then the effects on the concentrations of NE and dopamine in the hippocampus were evaluated. […] To elucidate the cellular mechanisms involved in leptin effects, proteins associated with apoptosis were determined by immunoblotting. […] Activated caspase-3 could not be detected in the hippocampi of control animals.

B1: leptin: Murine leptin provided by A. Gertler; adipokine hormone, full leptin is a 146 amino acid sequence (protein, UniProt P41160 22-167, looked up)
Leptin: VPIQKVQDDTKTLIKTIVTRINDISHTQSVSAKQRVTGLDFIPGLHPILSLSKMDQTLAVYQQVLTSLPSQNVLQIANDLENLRDLLHLLAFSKSCSLPQTSGLQKPESLDGVLEASLYSTEVVALSRLQGSLQDILQQLDVSPEC
[1]; AL group
  dopamine concentrations in the hippocampus: down-regulated
[1]; DR group (40%)
  dopamine concentrations in the hippocampus: did not induce any significant reduction
[1]; DR to 40%
  NE concentration in the hippocampus: reversed the reduction of NE
Mice [2]
  cognitive function in the eight arm maze: reverse cognitive function in diseased animals to the level of health controls; also recorded: improved impaired cognitive function
AMPK
  hippocampal AMPK phosphorylation: significantly reduced
Mice [3]
  activity index: reverse activity in diseased animals to the level of health controls; also recorded: reversed activity to control level
Activated caspase-3
  activated caspase-3 immunoreactivity: significantly reduced the immunoreactivity
